{
  "source": "patent US11504441B2",
  "about": "“Radiolabeled compounds targeting the prostate-specific membrane antigen” (PROVINCIAL HEALTH SERVICES AUTHORITY, priority 2019, dated 2022)",
  "key": {"[1]": {"tested_on": "PSMA-expressing LNCaP cancer xenografts", "conditions": "mouse, in vivo"}, "[2]": {"test": "in vivo", "conditions": "male, NODSCID 1L2RγKO, mouse, iv, total radioactivity; for excreta dose per gram or mL at 1 h: Urine uptake"}},
  "data": [
    {"smiles": "O=C(O)CCCCC(NC(=O)N[C@@H](CCCCNC(=O)[C@H](Cc1c2ccccc2cc2ccccc12)NC(=O)[C@H]1CC[C@H](CNC(=O)CN2CCN(CC(=O)O)CCN(CC(=O)O)CCN(CC(=O)O)CC2)CC1)C(=O)O)C(=O)O", "note": "(single isomer, unassigned) [68Ga-HTK03189A, metal not drawn]", "values": [
      {"measurement": "Tumor uptake", "setting": "[1]; male, NODSCID 1L2RγKO, iv, 1 h", "result": "2.10 ± 0.28", "unit": "% ID/g"},
      {"measurement": "Blood: Salivary ratio", "setting": "[1]", "result": "4.39 ± 0.44"},
      {"measurement": "Tumor: Blood ratio", "setting": "[1]", "result": "2.41 ± 0.29"},
      {"measurement": "Tumor: Kidney ratio", "setting": "[1]", "result": "0.83 ± 0.21"},
      {"measurement": "Tumor: Muscle ratio", "setting": "[1]", "result": "16.5 ± 4.08"},
      {"measurement": "Tumor: Salivary ratio", "setting": "[1]", "result": "10.5 ± 1.07"},
      {"measurement": "tissue uptake at 1 h", "setting": "[2]; Adrenal glands uptake", "result": "0.35 ± 0.06", "unit": "%ID/g"},
      {"measurement": "tissue uptake at 1 h", "setting": "[2]; Blood uptake", "result": "0.89 ± 0.22", "unit": "%ID/g"},
      {"measurement": "tissue uptake at 1 h", "setting": "[2]; Bone uptake", "result": "0.12 ± 0.03", "unit": "%ID/g"},
      {"measurement": "tissue uptake at 1 h", "setting": "[2]; Brain uptake", "result": 0.02, "unit": "%ID/g"},
      {"measurement": "tissue uptake at 1 h", "setting": "[2]; Fat uptake", "result": "0.18 ± 0.11", "unit": "%ID/g"},
      {"measurement": "tissue uptake at 1 h", "setting": "[2]; Heart uptake", "result": "0.24 ± 0.06", "unit": "%ID/g"},
      {"measurement": "tissue uptake at 1 h", "setting": "[2]; Intestine uptake", "result": "0.31 ± 0.18", "unit": "%ID/g"},
      {"measurement": "tissue uptake at 1 h", "setting": "[2]; Kidneys uptake", "result": "2.65 ± 0.69", "unit": "%ID/g"},
      {"measurement": "tissue uptake at 1 h", "setting": "[2]; Lacrimal uptake", "result": "0.18 ± 0.18", "unit": "%ID/g"},
      {"measurement": "tissue uptake at 1 h", "setting": "[2]; Liver uptake", "result": "0.34 ± 0.15", "unit": "%ID/g"},
      {"measurement": "tissue uptake at 1 h", "setting": "[2]; Lungs uptake", "result": "0.68 ± 0.12", "unit": "%ID/g"},
      {"measurement": "tissue uptake at 1 h", "setting": "[2]; Muscle uptake", "result": "0.14 ± 0.04", "unit": "%ID/g"},
      {"measurement": "tissue uptake at 1 h", "setting": "[2]; Pancreas uptake", "result": "0.15 ± 0.04", "unit": "%ID/g"},
      {"measurement": "tissue uptake at 1 h", "setting": "[2]; Salivary uptake", "result": "0.2 ± 0.04", "unit": "%ID/g"},
      {"measurement": "tissue uptake at 1 h", "setting": "[2]; Seminal uptake", "result": "3.61 ± 4.59", "unit": "%ID/g"},
      {"measurement": "tissue uptake at 1 h", "setting": "[2]; Spleen uptake", "result": "0.21 ± 0.1", "unit": "%ID/g"},
      {"measurement": "tissue uptake at 1 h", "setting": "[2]; Stomach uptake", "result": "0.11 ± 0.06", "unit": "%ID/g"},
      {"measurement": "tissue uptake at 1 h", "setting": "[2]; Tail uptake", "result": "0.77 ± 0.3", "unit": "%ID/g"},
      {"measurement": "tissue uptake at 1 h", "setting": "[2]; Testes uptake", "result": "0.23 ± 0.11", "unit": "%ID/g"},
      {"measurement": "tissue uptake at 1 h", "setting": "[2]; Thyroid uptake", "result": "0.25 ± 0.05", "unit": "%ID/g"},
      {"measurement": "excreta dose per gram or mL at 1 h", "setting": "[2]", "result": "343 ± 54.4", "unit": "%ID/g"}
    ]},
    {"smiles": "O=C(O)CCCCC(NC(=O)N[C@@H](CCCCNC(=O)[C@H](Cc1c2ccccc2cc2ccccc12)NC(=O)[C@H]1CC[C@H](CNC(=O)CN2CCN(CC(=O)O)CCN(CC(=O)O)CCN(CC(=O)O)CC2)CC1)C(=O)O)C(=O)O", "note": "(single isomer, unassigned) [68Ga-HTK03189B, metal not drawn]", "values": [
      {"measurement": "Adrenal glands uptake", "setting": "[1]; male, NODSCID 1L2RγKO, iv, 1 h", "result": "0.37 ± 0.15", "unit": "% ID/g"},
      {"measurement": "Blood uptake", "setting": "[1]; male, NODSCID 1L2RγKO, iv, 1 h", "result": "1.06 ± 0.25", "unit": "% ID/g"},
      {"measurement": "Bone uptake", "setting": "[1]; male, NODSCID 1L2RγKO, iv, 1 h", "result": "0.10 ± 0.02", "unit": "% ID/g"},
      {"measurement": "Brain uptake", "setting": "[1]; male, NODSCID 1L2RγKO, iv, 1 h", "result": "0.03 ± 0.00", "unit": "% ID/g"},
      {"measurement": "Fat uptake", "setting": "[1]; male, NODSCID 1L2RγKO, iv, 1 h", "result": "0.17 ± 0.10", "unit": "% ID/g"},
      {"measurement": "Heart uptake", "setting": "[1]; male, NODSCID 1L2RγKO, iv, 1 h", "result": "0.30 ± 0.06", "unit": "% ID/g"},
      {"measurement": "Intestine uptake", "setting": "[1]; male, NODSCID 1L2RγKO, iv, 1 h", "result": "0.28 ± 0.07", "unit": "% ID/g"},
      {"measurement": "Kidneys uptake", "setting": "[1]; male, NODSCID 1L2RγKO, iv, 1 h", "result": "2.13 ± 0.45", "unit": "% ID/g"},
      {"measurement": "Lacrimal uptake", "setting": "[1]; male, NODSCID 1L2RγKO, iv, 1 h", "result": "0.13 ± 0.04", "unit": "% ID/g"},
      {"measurement": "Liver uptake", "setting": "[1]; male, NODSCID 1L2RγKO, iv, 1 h", "result": "0.39 ± 0.08", "unit": "% ID/g"},
      {"measurement": "Lungs uptake", "setting": "[1]; male, NODSCID 1L2RγKO, iv, 1 h", "result": "0.82 ± 0.22", "unit": "% ID/g"},
      {"measurement": "Muscle uptake", "setting": "[1]; male, NODSCID 1L2RγKO, iv, 1 h", "result": "0.12 ± 0.03", "unit": "% ID/g"},
      {"measurement": "Pancreas uptake", "setting": "[1]; male, NODSCID 1L2RγKO, iv, 1 h", "result": "0.18 ± 0.05", "unit": "% ID/g"},
      {"measurement": "Salivary uptake", "setting": "[1]; male, NODSCID 1L2RγKO, iv, 1 h", "result": "0.22 ± 0.04", "unit": "% ID/g"},
      {"measurement": "Seminal uptake", "setting": "[1]; male, NODSCID 1L2RγKO, iv, 1 h", "result": "2.62 ± 4.74", "unit": "% ID/g"},
      {"measurement": "Spleen uptake", "setting": "[1]; male, NODSCID 1L2RγKO, iv, 1 h", "result": "0.20 ± 0.05", "unit": "% ID/g"},
      {"measurement": "Stomach uptake", "setting": "[1]; male, NODSCID 1L2RγKO, iv, 1 h", "result": "0.11 ± 0.03", "unit": "% ID/g"},
      {"measurement": "Tail uptake", "setting": "[1]; male, NODSCID 1L2RγKO, iv, 1 h", "result": "0.90 ± 0.29", "unit": "% ID/g"},
      {"measurement": "Testes uptake", "setting": "[1]; male, NODSCID 1L2RγKO, iv, 1 h", "result": "0.26 ± 0.05", "unit": "% ID/g"},
      {"measurement": "Thyroid uptake", "setting": "[1]; male, NODSCID 1L2RγKO, iv, 1 h", "result": "0.29 ± 0.08", "unit": "% ID/g"},
      {"measurement": "Tumor uptake", "setting": "[1]; male, NODSCID 1L2RγKO, iv, 1 h", "result": "0.67 ± 0.15", "unit": "% ID/g"},
      {"measurement": "Urine uptake", "setting": "[1]; male, NODSCID 1L2RγKO, iv, 1 h", "result": "441 ± 138", "unit": "% ID/g"},
      {"measurement": "Blood: Salivary ratio", "setting": "[1]", "result": "4.86 ± 1.16"},
      {"measurement": "Tumor: Blood ratio", "setting": "[1]", "result": "0.65 ± 0.15"},
      {"measurement": "Tumor: Kidney ratio", "setting": "[1]", "result": "0.32 ± 0.05"},
      {"measurement": "Tumor: Muscle ratio", "setting": "[1]", "result": "5.68 ± 1.12"},
      {"measurement": "Tumor: Salivary ratio", "setting": "[1]", "result": "3.08 ± 0.53"}
    ]},
    {"smiles": "O=C(O)CC[C@H](NC(=O)N[C@@H](CCCCNC(=O)[C@H](Cc1c2ccccc2cc2ccccc12)NC(=O)[C@H]1CC[C@H](CNC(=O)CN2CCN(CC(=O)O)CCN(CC(=O)O)CCN(CC(=O)O)CC2)CC1)C(=O)O)C(=O)O", "note": "[68Ga-HTK03041, metal not drawn]", "values": [
      {"measurement": "tissue uptake at 1 h", "setting": "[2]; Adrenal glands uptake", "result": "8.9 ± 2.56", "unit": "%ID/g"},
      {"measurement": "tissue uptake at 1 h", "setting": "[2]; Blood uptake", "result": "1.43 ± 0.3", "unit": "%ID/g"},
      {"measurement": "tissue uptake at 1 h", "setting": "[2]; Bone uptake", "result": "1.29 ± 0.45", "unit": "%ID/g"},
      {"measurement": "tissue uptake at 1 h", "setting": "[2]; Brain uptake", "result": "0.1 ± 0.05", "unit": "%ID/g"},
      {"measurement": "tissue uptake at 1 h", "setting": "[2]; Fat uptake", "result": "2.06 ± 0.59", "unit": "%ID/g"},
      {"measurement": "tissue uptake at 1 h", "setting": "[2]; Heart uptake", "result": "1.82 ± 0.21", "unit": "%ID/g"},
      {"measurement": "tissue uptake at 1 h", "setting": "[2]; Intestine uptake", "result": "1.14 ± 0.18", "unit": "%ID/g"},
      {"measurement": "tissue uptake at 1 h", "setting": "[2]; Kidneys uptake", "result": "170 ± 26.4", "unit": "%ID/g"},
      {"measurement": "tissue uptake at 1 h", "setting": "[2]; Lacrimal uptake", "result": "2.44 ± 1.79", "unit": "%ID/g"},
      {"measurement": "tissue uptake at 1 h", "setting": "[2]; Liver uptake", "result": "1.38 ± 0.25", "unit": "%ID/g"},
      {"measurement": "tissue uptake at 1 h", "setting": "[2]; Lungs uptake", "result": "4.32 ± 0.62", "unit": "%ID/g"},
      {"measurement": "tissue uptake at 1 h", "setting": "[2]; Muscle uptake", "result": "0.75 ± 0.09", "unit": "%ID/g"},
      {"measurement": "tissue uptake at 1 h", "setting": "[2]; Pancreas uptake", "result": "1.47 ± 0.16", "unit": "%ID/g"},
      {"measurement": "tissue uptake at 1 h", "setting": "[2]; Salivary uptake", "result": "4.99 ± 0.88", "unit": "%ID/g"},
      {"measurement": "tissue uptake at 1 h", "setting": "[2]; Seminal uptake", "result": "1.03 ± 0.27", "unit": "%ID/g"},
      {"measurement": "tissue uptake at 1 h", "setting": "[2]; Spleen uptake", "result": "8.95 ± 3.22", "unit": "%ID/g"},
      {"measurement": "tissue uptake at 1 h", "setting": "[2]; Stomach uptake", "result": "0.41 ± 0.11", "unit": "%ID/g"},
      {"measurement": "tissue uptake at 1 h", "setting": "[2]; Tail uptake", "result": "1.36 ± 0.45", "unit": "%ID/g"},
      {"measurement": "tissue uptake at 1 h", "setting": "[2]; Testes uptake", "result": "1.34 ± 0.22", "unit": "%ID/g"},
      {"measurement": "tissue uptake at 1 h", "setting": "[2]; Thyroid uptake", "result": "2.48 ± 0.44", "unit": "%ID/g"},
      {"measurement": "tissue uptake at 1 h", "setting": "[2]; Tumor uptake", "result": "23.1 ± 6.11", "unit": "%ID/g"},
      {"measurement": "excreta dose per gram or mL at 1 h", "setting": "[2]", "result": "173 ± 93", "unit": "%ID/g"}
    ]}
  ]
}
